Experimental data as given in patent US20160002317A1.

Molecular target: mAG (monomeric Azami-Green) with C-terminal E. coli BirA biotinylation motif and 6xHis tag
Test: capture of lambda phage on MACS streptavidin beads prebound with biotinylated mAG1; background control

In the case of “phage uninduced (control) for α-mAG1 Fab::calmodulin expression”, the column output (phage (of 5.5×107 added)) is reported as 20000.
